Measured values reported in the supplement of paper PMC9112550, “Optimization of the antimicrobial peptide Bac7 by deep mutational scanning” (BMC Biology, 2022).

Tested on: Escherichia coli TOP10
Assay: shrunken log2 fold change of peptide-encoding DNA abundance (4.5 h post-induction vs induction); higher = less antimicrobial activity (less host growth inhibition)
Settings: time post-induction: 4.5 h; library: site-saturation at positions 5, 18, 19, 20
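Further: peptides expressed intracellularly from a pBAD plasmid library in pooled LB shake-flask culture, induced with 0.3% L-arabinose, DNA abundance read by NGS, three biological replicates, DESeq2 with apeglm shrinkage.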

Sequence	shrunken log2 fold change
RRIRVRPPRLPRPRPRPPAHPRP	0.231
RRIRPRPPRLPRPRPRPRNCPRP	0.0981
RRIRGRPPRLPRPRPRPKQRPRP	0.471
RRIRERPPRLPRPRPRPGLYPRP	-0.233
RRIRWRPPRLPRPRPRPYKHPRP	-1.24
RRIRSRPPRLPRPRPRPHSGPRP	0.0329
RRIRCRPPRLPRPRPRPSSLPRP	-0.555
RRIRVRPPRLPRPRPRPTTIPRP	-0.0865
RRIRDRPPRLPRPRPRPKVIPRP	-0.176
RRIRWRPPRLPRPRPRPVGTPRP	0.235
RRIRPRPPRLPRPRPRPKCWPRP	0.765
RRIRNRPPRLPRPRPRPHFYPRP	-0.816
RRIRTRPPRLPRPRPRPKGVPRP	0.253
RRIRRRPPRLPRPRPRPKSYPRP	0.171
RRIRGRPPRLPRPRPRPYCKPRP	0.0688
RRIRQRPPRLPRPRPRPSYKPRP	-0.54
RRIRNRPPRLPRPRPRPTKDPRP	-0.197
RRIRVRPPRLPRPRPRPYGLPRP	-0.00518
RRIRERPPRLPRPRPRPIAGPRP	0.0426
RRIRFRPPRLPRPRPRPSYEPRP	1.66
RRIRERPPRLPRPRPRPGIKPRP	-0.587
RRIRSRPPRLPRPRPRPHVDPRP	-0.0165
RRIRYRPPRLPRPRPRPSTTPRP	-0.717
RRIRKRPPRLPRPRPRPYFCPRP	-0.288
RRIRKRPPRLPRPRPRPMNCPRP	-0.014

Sequence	shrunken log2 fold change
RRIRDRPPRLPRPRPRPQFCPRP	-0.137
RRIRSRPPRLPRPRPRPGRMPRP	0.167
RRIRTRPPRLPRPRPRPVPIPRP	-0.0974
RRIRHRPPRLPRPRPRPRLEPRP	0.0466
RRIRYRPPRLPRPRPRPKDKPRP	-0.536
RRIRERPPRLPRPRPRPQKWPRP	-0.473
RRIRNRPPRLPRPRPRPQWMPRP	-0.0995
RRIRHRPPRLPRPRPRPLFWPRP	0.274
RRIRARPPRLPRPRPRPKPTPRP	0.744
RRIRHRPPRLPRPRPRPMGLPRP	0.00622
RRIRRRPPRLPRPRPRPTSPPRP	0.225
RRIRMRPPRLPRPRPRPNFVPRP	0.0215
RRIRWRPPRLPRPRPRPDTLPRP	-0.134
RRIRKRPPRLPRPRPRPKEHPRP	0.405
RRIRRRPPRLPRPRPRPNEEPRP	0.0468
RRIRARPPRLPRPRPRPSKFPRP	-0.163
RRIRGRPPRLPRPRPRPVECPRP	0.289
RRIRRRPPRLPRPRPRPMTWPRP	-0.154
RRIRYRPPRLPRPRPRPHCKPRP	-0.11
RRIRYRPPRLPRPRPRPNGFPRP	-0.219
RRIRWRPPRLPRPRPRPGYYPRP	-0.125
RRIRMRPPRLPRPRPRPNGEPRP	0.278
RRIRGRPPRLPRPRPRPHIMPRP	-0.0914
RRIRSRPPRLPRPRPRPKQSPRP	0.328
RRIRWRPPRLPRPRPRPWIDPRP	-0.049

Sequence	shrunken log2 fold change
RRIRGRPPRLPRPRPRPNDTPRP	0.188
RRIRVRPPRLPRPRPRPMLAPRP	0.446
RRIRGRPPRLPRPRPRPIYTPRP	0.173
RRIRPRPPRLPRPRPRPMQYPRP	-0.0088
RRIRERPPRLPRPRPRPKWFPRP	-0.0144
RRIRFRPPRLPRPRPRPELAPRP	0.0952
RRIRNRPPRLPRPRPRPNQSPRP	-0.157
RRIRCRPPRLPRPRPRPPFNPRP	-0.137
RRIRARPPRLPRPRPRPWAFPRP	0.222
RRIRGRPPRLPRPRPRPTQPPRP	1.12
RRIRSRPPRLPRPRPRPRTRPRP	0.512
RRIRTRPPRLPRPRPRPQWGPRP	-0.0978
RRIRGRPPRLPRPRPRPYITPRP	-0.302
RRIRIRPPRLPRPRPRPHEAPRP	-0.396
RRIRKRPPRLPRPRPRPIVCPRP	-0.00674
RRIRDRPPRLPRPRPRPHRQPRP	-0.0279
RRIRLRPPRLPRPRPRPKFQPRP	-0.113
RRIRRRPPRLPRPRPRPKMRPRP	0.733
RRIRERPPRLPRPRPRPRWPPRP	0.486
RRIRDRPPRLPRPRPRPYLYPRP	-0.0408
RRIRPRPPRLPRPRPRPDDVPRP	-0.0212
RRIRVRPPRLPRPRPRPIFKPRP	-0.0901
RRIRARPPRLPRPRPRPKEKPRP	0.0797
RRIRTRPPRLPRPRPRPQLNPRP	-0.33
RRIRVRPPRLPRPRPRPMDAPRP	0.0377

Sequence	shrunken log2 fold change
RRIRERPPRLPRPRPRPFLGPRP	-0.284
RRIRHRPPRLPRPRPRPWCVPRP	-0.386
RRIRSRPPRLPRPRPRPIMFPRP	-0.304
RRIRGRPPRLPRPRPRPNHLPRP	-0.226
RRIRWRPPRLPRPRPRPCFCPRP	0.126
RRIRHRPPRLPRPRPRPHMPPRP	-0.358
RRIRERPPRLPRPRPRPNTLPRP	-0.556
RRIRCRPPRLPRPRPRPMNHPRP	-0.658
RRIRSRPPRLPRPRPRPHRNPRP	-0.489
RRIRTRPPRLPRPRPRPQKSPRP	-0.0823
RRIRKRPPRLPRPRPRPYNDPRP	-0.00691
RRIRYRPPRLPRPRPRPWSPPRP	-0.848
RRIRNRPPRLPRPRPRPESCPRP	0.073
RRIRERPPRLPRPRPRPPAMPRP	-0.186
RRIRGRPPRLPRPRPRPYRWPRP	0.191
RRIRARPPRLPRPRPRPHQGPRP	-0.0611
RRIRGRPPRLPRPRPRPDCRPRP	0.68
RRIRPRPPRLPRPRPRPVPNPRP	0.14
RRIRQRPPRLPRPRPRPPYRPRP	0.158
RRIRMRPPRLPRPRPRPLMVPRP	0.396
RRIRARPPRLPRPRPRPHQMPRP	-0.066
RRIRKRPPRLPRPRPRPPDRPRP	0.862
RRIRWRPPRLPRPRPRPWNMPRP	-0.101
RRIRCRPPRLPRPRPRPMDGPRP	0.013
RRIRERPPRLPRPRPRPSMEPRP	-0.14

Sequence	shrunken log2 fold change
RRIRLRPPRLPRPRPRPDVDPRP	0.0667
RRIRVRPPRLPRPRPRPYFQPRP	-0.649
RRIRPRPPRLPRPRPRPTKHPRP	-0.131
RRIRRRPPRLPRPRPRPGDHPRP	0.0619
RRIRLRPPRLPRPRPRPYIGPRP	-0.129
RRIRGRPPRLPRPRPRPKYDPRP	1.62
RRIRKRPPRLPRPRPRPEMRPRP	0.105
RRIRNRPPRLPRPRPRPVFLPRP	-0.215
RRIRKRPPRLPRPRPRPATCPRP	0.0272
RRIRDRPPRLPRPRPRPYYNPRP	-1.01
RRIRWRPPRLPRPRPRPSYGPRP	-0.503
RRIRYRPPRLPRPRPRPYPKPRP	-0.201
RRIRFRPPRLPRPRPRPTQCPRP	0.322
RRIRVRPPRLPRPRPRPVKAPRP	0.0603
RRIRNRPPRLPRPRPRPKHMPRP	-0.382
RRIRIRPPRLPRPRPRPWVAPRP	-0.00986
RRIRMRPPRLPRPRPRPIFFPRP	0.276
RRIRCRPPRLPRPRPRPINPPRP	-0.00918
RRIRSRPPRLPRPRPRPCYKPRP	-0.281
RRIRFRPPRLPRPRPRPAIYPRP	-0.999
RRIRARPPRLPRPRPRPPAEPRP	1.15
RRIRFRPPRLPRPRPRPQSAPRP	0.0283
RRIRVRPPRLPRPRPRPVQNPRP	-0.029
RRIRQRPPRLPRPRPRPTDFPRP	-0.122
RRIRSRPPRLPRPRPRPNWIPRP	-0.659

Sequence	shrunken log2 fold change
RRIRRRPPRLPRPRPRPNQMPRP	0.388
RRIRYRPPRLPRPRPRPEYVPRP	-0.0327
RRIRFRPPRLPRPRPRPSWYPRP	-0.401
RRIRGRPPRLPRPRPRPKNTPRP	0.232
RRIRCRPPRLPRPRPRPRAWPRP	0.24
RRIRDRPPRLPRPRPRPQSNPRP	-0.109
RRIRGRPPRLPRPRPRPVWDPRP	0.593
RRIRLRPPRLPRPRPRPCDWPRP	0.201
RRIRWRPPRLPRPRPRPLQIPRP	-0.125
RRIRARPPRLPRPRPRPCFGPRP	0.0532
RRIRTRPPRLPRPRPRPKECPRP	-0.503
RRIRGRPPRLPRPRPRPEFLPRP	1.01
RRIRCRPPRLPRPRPRPRIYPRP	-0.0107
RRIRERPPRLPRPRPRPSYWPRP	-0.266
RRIRLRPPRLPRPRPRPIVPPRP	0.0358
RRIRHRPPRLPRPRPRPTDHPRP	-0.487
RRIRYRPPRLPRPRPRPQHGPRP	-0.0664
RRIRERPPRLPRPRPRPEVHPRP	0.116
RRIRTRPPRLPRPRPRPEGRPRP	0.1
RRIRRRPPRLPRPRPRPNKFPRP	-0.246
RRIRKRPPRLPRPRPRPFLVPRP	0.00497
RRIRPRPPRLPRPRPRPVSNPRP	-0.622
RRIRNRPPRLPRPRPRPFRQPRP	0.0231
RRIRQRPPRLPRPRPRPWPLPRP	-0.0625
RRIRIRPPRLPRPRPRPVFVPRP	-0.397
